One molecule from patent publication US20140206628A1 (University of Washington, published 2014) can be followed below.

The target in the test is A/WSN/1933 (H1N1) hemagglutinin (Influenza A virus A/WSN/1933 (H1N1)). In words: gel filtration.

B1: HB36.3 (Asp47Ser, Ala60Val) (designed binder)
chain: MSNAMDGQQLNRLLLEWIGAWDPFGLGKDAYDVEAEAVLQAVYETESAFDLAMRIMWIYVFAFNRPIPFPHAQKLARRLLELKQAASSPLPLE
As to B1, the binding result is reported as “binds”.
